Patent US20260226524A1, “GLUTAMINE SYNTHETASE MARKER FOR RECOMBINANT EXPRESSION” (priority 2023, published 2026)

What was measured:
[1] = test system: Chinese Hamster Ovary CHO-K1 (CCL-61) host cell; test: Bio-Layer Interferometry (Octet) analysis of denosumab expression in supernatants of cell pools selected with GS markers; format: cell-based; conditions: 50 μM MSX; for pools expressed detectable denosumab (>0.125 ug/mL): Day 20, among 300 seeded pools in 96-well plates, GS used as selectable marker; for median expression value of denosumab of positive pools: Day 20, positive pools (>0.125 ug/mL), Octet ProA biosensor
Method: Vector design: Nearly all selectable marker currently used in GS system is Cricetulus griseus-derived GS.
(§1) After random integration, GS expression in each individual cell was evaluated by monitoring UnaG level using flow cytometry. Denosumab here served as the secreted reporter for assessing titers using selectable glutamine synthetase markers from different species. The vectors differed from one another by the GS-coding sequences, which were derived from Chinese hamster (Cricetulus griseus), koala (Phascolarctos cinerecus), vesper bat (Pipistrellus kuhlii), gerbil (Meriones unguiculatus), ostrich (Struthio camelus australis), junglefowl (Gallus gallus), pigeon (Columbia Livia), and snake (Pseudonaja textilis), respectively.
(§2) Electroporation and cell screening: Expression vectors described above were first linearized by the restriction endonuclease Pvul (there was one Pvul site in the ampicillin resistant gene). Then linearized vectors were introduced into the host cell using cell electroporator (Lonza Nuleofector 2b). The host cell was derived from ATCC wild-type Chinese Hamster Ovary CHO-K1 (CCL-61) and adapted to serum-free suspension culture at Shanghai ZhenGe Biotech Co. Ltd. 24 hours post electroporation, cell pools were plated into culture flasks or 96-well plates (approximately 1, 200 cells/well, 300 wells per condition) in the absence of or presence of MSX (50 μM).

[2] = test system: Chinese Hamster Ovary CHO-K1 (CCL-61) host cell; test: Flow cytometry analysis of GS expression via UnaG fluorescence in electroporated cell pools; format: cell-based; conditions: about 3 weeks post-seeding; for UnaG expression of cells (selection efficiency): MSX selection, FIGS. 3A-3B
Excerpt: Vector design: Nearly all selectable marker currently used in GS system is Cricetulus griseus-derived GS. To investigate whether the GS from other species further improve titer or screening efficiency, a set of vectors were designed as described below: • a sequence coding for an eel green fluorescent protein UnaG, a 2A self-cleaving peptide and a glutamine synthetase, placed under the control of the SV40 promoter; • two expression cassettes, in which the sequences coding for the heavy chain and light chain of a human anti-RANKL antibody denosumab were placed under the control of CMV promoters, respectively; • a sequence coding for a protein conferring resistance to ampicillin, for use in prokaryotic cells; and • a prokaryotic origin of replication.
as §1, with “The 2A self-cleaving peptide allowed relatively equal molar expression of the two products separated by it, namely, the green fluorescent protein UnaG and glutamine synthetase. After” for “After”
as §2
Flow cytometry analysis of GS expression: About 3 weeks post-seeding, cell pools electroporated with GS gene from indicated species were analyzed using Attune NxT flow cytometer (FIGS. 3A-3C). […] As shown, when the GS from Chinese Hamster was used as the selectable marker, most tested cells (>98%) remained UnaG “negative” in the presence of the MSX, indicating low selection efficiency.

Row | Molecule | pools expressed detectable denosumab (>0.125 ug/mL) [1] | median expression value of denosumab of positive pools [1] | UnaG expression of cells (selection efficiency) [2] | tested cells remaining UnaG negative ([2]; in the presence of the MSX (50 μM))
1 | koala GS: Phascolarctos cinerecus glutamine synthetase, SEQ ID NO: 1 (nucleotide SEQ ID NO: 10), used as selectable marker (protein, listed as Phascolarctos cinereus, Koala GS) MATSASSHLNKNIKQMYMNLPQGNKVLAMYIWIDGTGEGLRCKTRTLDSEPKSIDDLPEWNFDGSSTYQSEGSNSDMYLVPAALFRDPFRKDPNKLVFCEVFKYNRKPAETNLRHTCKRIMDMVTNQKPWFGMEQEYTLMGTDGHPFGWPSNGFPGPQGPYYCGVGADKAYGRDIAEAHYRACLYAGVKIVGTNAEAMPSQWEFQIGPCEGIEMGDHLWVARFILHRVCEDFGMIVTFDPKPIPGNWNGAGCHTNFSTKAMREENGLKFIEEAIERLSKRHKYHIRAYDPKGGLDNARRLTGFNETSNINEFSAGVANRGASIRIPRMVGQDKKGYFEDRRPSANCDPYAVTEALIRTCLLNETGEEPFQYKN | 85.6% | 2.86 µg/mL | significant amounts of cells showed positive UnaG expression | 
2 | ostrich GS: Struthio camelus australis glutamine synthetase, SEQ ID NO: 2 (nucleotide SEQ ID NO: 11), used as selectable marker (protein, listed as Struthio camelus, OstrichGS) MATSASSHLSKAIKHMYMKLPQGEKVQAMYIWIDGTGEHLRCKTRTLDHEPKSLEDLPEWNFDGSSTFQAEGSNSDMYLRPAAMFRDPFRKDPNKLVLCEVFKYNRQSAETNLRHTCRRIMDMVSNQHPWFGMEQEYTLLGTDGHPFGWPSNGFPGPQGPYYCGVGADKAYGRDIVEAHYRACLYAGVKIGGTNAEVMPAQWEFQVGPCEGIEMGDHLWIARFILHRVCEDFGVIVSFDPKPIPGNWNGAGCHTNFSTKSMREDGGLKHIEEAIEKLGKRHQYHIRAYDPKGGLDNARRLTGFHETSSIHEFSAGVANRGASIRIPRNVGHEKKGYFEDRRPSANCDPYAVTEALVRTCLLNETGDEPFEYKN | 65.3% | 2.57 µg/mL | significant amounts of cells showed positive UnaG expression | 
3 | Chinese hamster GS: Cricetulus griseus glutamine synthetase, SEQ ID NO: 9 (nucleotide SEQ ID NO: 18), Uniprot P04773; traditional selectable marker (protein, listed as Cricetulus griseus, Hamster GS) MATSASSHLNKGIKQMYMSLPQGEKVQAMYIWVDGTGEGLRCKTRTLDCEPKCVEELPEWNFDGSSTFQSESSNSDMYLSPVAMFRDPFRKEPNKLVFCEVFKYNQKPAETNLRHTCKRIMDMVSNQHPWFGMEQEYTLLGTDGHPFGWPSDGFPGPQGLYYCGVGADKAYRRDIMEAHYRACLYAGVKITGTYAEVKHAQWEFQIGPCEGIRMGDHLWVARFILHRVCKDFGVIATFDSKPIPGNWNGAGCHTNFSTKTMREENGLKHIKEAIEKLSKRHRYHIRAYDPKGGLDNARRLTGFHKTSNINDFSAGVADRSASIRIPRTVGQEKKGYFEARCPSANCDPFAVTEAIVRTCLLNETGDQPFQYKN | 4.3% | 1.07 µg/mL |  | > 98%
